Earlier results, collected in paper PMC3039444.

Biological target: Ube2g2 (Homo sapiens) (UniProt P60604)
UniProt P60604, sequence (P60604 2-165): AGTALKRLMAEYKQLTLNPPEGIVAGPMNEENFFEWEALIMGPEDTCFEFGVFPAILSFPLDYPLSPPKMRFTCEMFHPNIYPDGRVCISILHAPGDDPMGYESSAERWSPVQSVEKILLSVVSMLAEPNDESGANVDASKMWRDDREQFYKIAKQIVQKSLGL

Kd: 21 nM
Substance: gp78 G2BR (from UniProt Q9UKV5)
